Laboratory results from US20140087995A1 (published 2014).
Numbered stars: 1 amine (or outer) side, 2 acyl side, 3 side chain; on linkers, the order of the positions; unused ones are H or OH. Bridge positions count the residues as written; N and C are the ends. Side chains are listed from the residue outwards. Ends that are not written are not given here. * marks the point of attachment. C20 diacid = O=C(O)CCCCCCCCCCCCCCCCCCC(=O)*; γGlu = O=C(O)[C@H](CCC(=O)[*:2])N[*:1]; AEEA = NCCOCCOCC(=O)O

T1: rat amylin receptor (rat calcitonin receptor + rat RAMP 3) (rat, UniProt P32214 25-516; Q9JJ73 23-147)
T1 construct: whole, on cells; Membranes prepared from transiently transfected BHK tk'ts 13 cells; also called rAmylin-R; rat amylin 3(a) receptor
T1 sequence (looked up) 1: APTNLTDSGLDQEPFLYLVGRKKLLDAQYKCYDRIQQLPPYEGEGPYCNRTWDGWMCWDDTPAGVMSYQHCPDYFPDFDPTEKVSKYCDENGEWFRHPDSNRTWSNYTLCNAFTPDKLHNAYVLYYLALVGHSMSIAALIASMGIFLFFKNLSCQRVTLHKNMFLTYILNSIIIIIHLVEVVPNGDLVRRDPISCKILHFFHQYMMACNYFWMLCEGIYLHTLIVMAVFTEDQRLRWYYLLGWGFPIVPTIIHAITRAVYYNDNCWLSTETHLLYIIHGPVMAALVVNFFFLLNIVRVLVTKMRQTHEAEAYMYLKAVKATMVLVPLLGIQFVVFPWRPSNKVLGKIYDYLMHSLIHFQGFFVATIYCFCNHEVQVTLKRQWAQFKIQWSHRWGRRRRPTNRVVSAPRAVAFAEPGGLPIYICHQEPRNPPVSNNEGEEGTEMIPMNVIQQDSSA
T1 sequence (looked up) 2: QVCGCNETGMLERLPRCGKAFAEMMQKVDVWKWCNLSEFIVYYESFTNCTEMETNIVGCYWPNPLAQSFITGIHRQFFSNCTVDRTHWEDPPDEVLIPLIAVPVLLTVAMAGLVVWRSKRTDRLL

T2: rat calcitonin receptor (rat, UniProt P32214 25-516)
T2 construct: whole, on cells; Membranes prepared from transiently transfected BHK tk'ts 13 cells; also called rCTR; rat calcitonin (a) receptor
T2 sequence (looked up): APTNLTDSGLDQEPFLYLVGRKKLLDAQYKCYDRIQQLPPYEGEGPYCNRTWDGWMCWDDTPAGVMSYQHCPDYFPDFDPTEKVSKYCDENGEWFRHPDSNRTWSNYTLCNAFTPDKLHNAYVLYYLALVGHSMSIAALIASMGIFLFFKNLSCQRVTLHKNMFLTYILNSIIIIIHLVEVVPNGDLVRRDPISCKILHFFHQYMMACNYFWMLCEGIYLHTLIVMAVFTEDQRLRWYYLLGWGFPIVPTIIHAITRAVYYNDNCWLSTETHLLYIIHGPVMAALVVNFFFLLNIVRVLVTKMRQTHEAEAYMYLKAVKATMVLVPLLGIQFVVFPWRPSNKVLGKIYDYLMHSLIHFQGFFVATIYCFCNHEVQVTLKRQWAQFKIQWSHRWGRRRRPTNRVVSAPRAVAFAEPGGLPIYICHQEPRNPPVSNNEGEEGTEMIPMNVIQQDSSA

T3: human calcitonin receptor (human, UniProt P30988 25-474)
T3 construct: whole, on cells; Membranes from stably transfected BHK cells; also called hCTR; hCT
T3 sequence (looked up): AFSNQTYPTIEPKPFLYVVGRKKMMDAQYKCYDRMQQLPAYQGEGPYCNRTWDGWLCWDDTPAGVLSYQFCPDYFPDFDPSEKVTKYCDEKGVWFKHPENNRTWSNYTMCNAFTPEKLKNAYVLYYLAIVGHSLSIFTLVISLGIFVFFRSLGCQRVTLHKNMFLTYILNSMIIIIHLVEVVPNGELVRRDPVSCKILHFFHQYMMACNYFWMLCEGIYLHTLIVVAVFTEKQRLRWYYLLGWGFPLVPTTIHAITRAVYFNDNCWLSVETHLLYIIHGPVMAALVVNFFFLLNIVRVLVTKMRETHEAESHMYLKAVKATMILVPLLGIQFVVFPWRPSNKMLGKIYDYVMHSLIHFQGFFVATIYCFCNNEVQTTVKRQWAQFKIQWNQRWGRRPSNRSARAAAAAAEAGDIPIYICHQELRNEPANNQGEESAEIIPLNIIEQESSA

B1: N^ε1-[2-[2-[2-[[2-[2-[2-[[(4S)-4-carboxy-4-(19-carboxynonadecanoylamino)butanoyl]amino]ethoxy]ethoxy]acetyl]amino]ethoxy]ethoxy]acetyl]-[Arg17,Pro21,Pro27,Arg34 … (peptide)
peptide: K([AEEA-AEEA-γGlu-C20 diacid])CNTATCATQRLANFLRHSSPNFGAIPSSTNVGRNTY-NH2
modifications: disulfide 2-7; N-terminus assumed
SMILES: CC[C@H](C)[C@H](NC(=O)[C@H](C)NC(=O)CNC(=O)[C@H](Cc1ccccc1)NC(=O)[C@H](CC(N)=O)NC(=O)[C@@H]1CCCN1C(=O)[C@H](CO)NC(=O)[C@H](CO)NC(=O)[C@H](Cc1c[nH]cn1)NC(=O)[C@H](CCCNC(=N)N)NC(=O)[C@H](CC(C)C)NC(=O)[C@H](Cc1ccccc1)NC(=O)[C@H](CC(N)=O)NC(=O)[C@H](C)NC(=O)[C@H](CC(C)C)NC(=O)[C@H](CCCNC(=N)N)NC(=O)[C@H](CCC(N)=O)NC(=O)[C@@H](NC(=O)[C@H](C)NC(=O)[C@@H]1CSSC[C@H](NC(=O)[C@@H](N)CCCCNC(=O)COCCOCCNC(=O)COCCOCCNC(=O)CC[C@H](NC(=O)CCCCCCCCCCCCCCCCCCC(=O)O)C(=O)O)C(=O)N[C@@H](CC(N)=O)C(=O)N[C@@H]([C@@H](C)O)C(=O)N[C@@H](C)C(=O)N[C@@H]([C@@H](C)O)C(=O)N1)[C@@H](C)O)C(=O)N1CCC[C@H]1C(=O)N[C@@H](CO)C(=O)N[C@@H](CO)C(=O)N[C@H](C(=O)N[C@@H](CC(N)=O)C(=O)N[C@H](C(=O)NCC(=O)N[C@@H](CCCNC(=N)N)C(=O)N[C@@H](CC(N)=O)C(=O)N[C@H](C(=O)N[C@@H](Cc1ccc(O)cc1)C(N)=O)[C@@H](C)O)C(C)C)[C@@H](C)O
notes: also called compound 95
B2: N^ε1-[2-[2-[2-[[2-[2-[2-[[(4S)-4-carboxy-4-(19-carboxynonadecanoylamino)butanoyl]amino]ethoxy]ethoxy]acetyl]amino]ethoxy]ethoxy]acetyl]-[Arg17,Pro21,Pro27,Pro31 … (peptide)
peptide: K([AEEA-AEEA-γGlu-C20 diacid])CNTATCATQRLANFLRHSSPNFGAIPSSTPVGSNTY-NH2
modifications: disulfide 2-7; N-terminus assumed
SMILES: CC[C@H](C)[C@H](NC(=O)[C@H](C)NC(=O)CNC(=O)[C@H](Cc1ccccc1)NC(=O)[C@H](CC(N)=O)NC(=O)[C@@H]1CCCN1C(=O)[C@H](CO)NC(=O)[C@H](CO)NC(=O)[C@H](Cc1c[nH]cn1)NC(=O)[C@H](CCCNC(=N)N)NC(=O)[C@H](CC(C)C)NC(=O)[C@H](Cc1ccccc1)NC(=O)[C@H](CC(N)=O)NC(=O)[C@H](C)NC(=O)[C@H](CC(C)C)NC(=O)[C@H](CCCNC(=N)N)NC(=O)[C@H](CCC(N)=O)NC(=O)[C@@H](NC(=O)[C@H](C)NC(=O)[C@@H]1CSSC[C@H](NC(=O)[C@@H](N)CCCCNC(=O)COCCOCCNC(=O)COCCOCCNC(=O)CC[C@H](NC(=O)CCCCCCCCCCCCCCCCCCC(=O)O)C(=O)O)C(=O)N[C@@H](CC(N)=O)C(=O)N[C@@H]([C@@H](C)O)C(=O)N[C@@H](C)C(=O)N[C@@H]([C@@H](C)O)C(=O)N1)[C@@H](C)O)C(=O)N1CCC[C@H]1C(=O)N[C@@H](CO)C(=O)N[C@@H](CO)C(=O)N[C@H](C(=O)N1CCC[C@H]1C(=O)N[C@H](C(=O)NCC(=O)N[C@@H](CO)C(=O)N[C@@H](CC(N)=O)C(=O)N[C@H](C(=O)N[C@@H](Cc1ccc(O)cc1)C(N)=O)[C@@H](C)O)C(C)C)[C@@H](C)O
notes: also called compound 96
B3: N^ε1-[2-[2-[2-[[2-[2-[2-[[(4S)-4-carboxy-4-(19-carboxynonadecanoylamino)butanoyl]amino]ethoxy]ethoxy]acetyl]amino]ethoxy]ethoxy]acetyl]-[Arg17,Pro21,Pro27,His34 … (peptide)
peptide: K([AEEA-AEEA-γGlu-C20 diacid])CNTATCATQRLANFLRHSSPNFGAIPSSTNVGHNTY-NH2
modifications: disulfide 2-7; N-terminus assumed
SMILES: CC[C@H](C)[C@H](NC(=O)[C@H](C)NC(=O)CNC(=O)[C@H](Cc1ccccc1)NC(=O)[C@H](CC(N)=O)NC(=O)[C@@H]1CCCN1C(=O)[C@H](CO)NC(=O)[C@H](CO)NC(=O)[C@H](Cc1c[nH]cn1)NC(=O)[C@H](CCCNC(=N)N)NC(=O)[C@H](CC(C)C)NC(=O)[C@H](Cc1ccccc1)NC(=O)[C@H](CC(N)=O)NC(=O)[C@H](C)NC(=O)[C@H](CC(C)C)NC(=O)[C@H](CCCNC(=N)N)NC(=O)[C@H](CCC(N)=O)NC(=O)[C@@H](NC(=O)[C@H](C)NC(=O)[C@@H]1CSSC[C@H](NC(=O)[C@@H](N)CCCCNC(=O)COCCOCCNC(=O)COCCOCCNC(=O)CC[C@H](NC(=O)CCCCCCCCCCCCCCCCCCC(=O)O)C(=O)O)C(=O)N[C@@H](CC(N)=O)C(=O)N[C@@H]([C@@H](C)O)C(=O)N[C@@H](C)C(=O)N[C@@H]([C@@H](C)O)C(=O)N1)[C@@H](C)O)C(=O)N1CCC[C@H]1C(=O)N[C@@H](CO)C(=O)N[C@@H](CO)C(=O)N[C@H](C(=O)N[C@@H](CC(N)=O)C(=O)N[C@H](C(=O)NCC(=O)N[C@@H](Cc1c[nH]cn1)C(=O)N[C@@H](CC(N)=O)C(=O)N[C@H](C(=O)N[C@@H](Cc1ccc(O)cc1)C(N)=O)[C@@H](C)O)C(C)C)[C@@H](C)O
notes: also called compound 97
B4: N^ε1-[2-[2-[2-[[2-[2-[2-[[(4S)-4-carboxy-4-(19-carboxynonadecanoylamino)butanoyl]amino]ethoxy]ethoxy]acetyl]amino]ethoxy]ethoxy]acetyl]-[Arg17,Pro21,Pro27,Pro34 … (peptide)
peptide: K([AEEA-AEEA-γGlu-C20 diacid])CNTATCATQRLANFLRHSSPNFGAIPSSTNVGPNTY-NH2
modifications: disulfide 2-7; N-terminus assumed
SMILES: CC[C@H](C)[C@H](NC(=O)[C@H](C)NC(=O)CNC(=O)[C@H](Cc1ccccc1)NC(=O)[C@H](CC(N)=O)NC(=O)[C@@H]1CCCN1C(=O)[C@H](CO)NC(=O)[C@H](CO)NC(=O)[C@H](Cc1c[nH]cn1)NC(=O)[C@H](CCCNC(=N)N)NC(=O)[C@H](CC(C)C)NC(=O)[C@H](Cc1ccccc1)NC(=O)[C@H](CC(N)=O)NC(=O)[C@H](C)NC(=O)[C@H](CC(C)C)NC(=O)[C@H](CCCNC(=N)N)NC(=O)[C@H](CCC(N)=O)NC(=O)[C@@H](NC(=O)[C@H](C)NC(=O)[C@@H]1CSSC[C@H](NC(=O)[C@@H](N)CCCCNC(=O)COCCOCCNC(=O)COCCOCCNC(=O)CC[C@H](NC(=O)CCCCCCCCCCCCCCCCCCC(=O)O)C(=O)O)C(=O)N[C@@H](CC(N)=O)C(=O)N[C@@H]([C@@H](C)O)C(=O)N[C@@H](C)C(=O)N[C@@H]([C@@H](C)O)C(=O)N1)[C@@H](C)O)C(=O)N1CCC[C@H]1C(=O)N[C@@H](CO)C(=O)N[C@@H](CO)C(=O)N[C@H](C(=O)N[C@@H](CC(N)=O)C(=O)N[C@H](C(=O)NCC(=O)N1CCC[C@H]1C(=O)N[C@@H](CC(N)=O)C(=O)N[C@H](C(=O)N[C@@H](Cc1ccc(O)cc1)C(N)=O)[C@@H](C)O)C(C)C)[C@@H](C)O
notes: also called compound 98

Columns and labels:
[1] = target: T1, rat amylin receptor (rat calcitonin …); assay: SPA competition vs 125I-rat amylin, membranes (Assay VI)
rat calcitonin receptor [2] = target: T2, rat calcitonin receptor; assay: SPA competition vs 125I-calcitonin, membranes (Assay VIII)
rat calcitonin receptor [3] = target: T2, rat calcitonin receptor; assay: ratio of IC50 on rat calcitonin receptor to IC50 on rat amylin receptor
[4] = target: T3, human calcitonin receptor; assay: ratio of IC50 on human calcitonin receptor to IC50 on human amylin receptor
Experimental: The resulting pellet was resuspended, homogenized and centrifuged (20.000 rpm, 15 min) in a buffer containing 20 mM Na-HEPES and 0.1 mM EDTA (pH 7.4, buffer 2). The resulting pellet was resuspended in buffer 2 and protein concentration was measured (BCA protein Assay, Pierce). The homogenate was kept cold during the whole procedure. The membranes were kept at −80° C. until use. The assay was performed in a 384 well Optiplate (PerkinElmer) in a total volume of 40 ul. Membranes were mixed with SPA beads. Final concentration of membranes 35 ng/μL final and SPA beads was 0.05 mg/well. Test-compounds were dissolved in DMSO and further diluted in assay buffer (50 mM Hepes, pH 7.4, 1 mM CaCl2, 5 mM MgCl₂, 0.1% OA and 0.02% Tween20). […] The final mixture was incubated with shaking at 400 rpm for 120 min at 25° C. prior to centrifugation (1500 rpm, 10 min). Samples were analyzed on TopCounter™ (Packard). The IC₅₀ was calculated using (one site binding competition analysis) GraphPad Prism5 as a measure of receptor affinity.
Membranes were prepared in the following way; the cells were rinsed with PBS and incubated with Versene for approximately 5 min before harvesting. The cells were flushed with PBS and the cell-suspension was centrifuged for 5 min at 1000 rpm. Cells were homogenized (Ultrathurrax) in a buffer containing 20 mM Na-HEPES and 10 mM EDTA (pH 7.4) and centrifuged at 20.000 rpm for 15 min. The resulting pellet was resuspended, homogenized and centrifuged (20.000 rpm, 15 min) in a buffer containing 20 mM Na-HEPES and 0.1 mM EDTA (pH 7.4, buffer 2). The resulting pellet was resuspended in buffer 2 and protein concentration was measured (BCA protein Assay, Pierce). The homogenate was kept cold during the whole procedure. The membranes were kept at −80° C. until use. Assay was performed in a 384 well Optiplate (PerkinElmer) in a total volume of 40 ul. Membranes were mixed with SPA beads.

Row | IC50 [1] [nM] | IC50 (rat calcitonin receptor [2]) [nM] | Ratio rCT/rAmylin binding (rat calcitonin receptor [3]) | Ratio hCT/hAmylin binding [4] | Binder
1 | 5.45 | 388 | 71.3 | 63.4 | B1
2 | 0.529 | 62.2 | 118 | 79.6 | B2
3 | 2.24 | 159 | 71.1 | 104 | B3
4 | 0.137 | 24.1 | 176 | 74.1 | B4
